Some targets named below: HLA-A*03:01; HLA-A*11:01; HLA-A*31:01; HLA-A*33:01; HLA-A*68:01.
Common to all, as to test: IEDB peptide-MHC binding, purified MHC/competitive/radioactivity; filed as Kd, often an IC50 or EC50 that approximates it; ≥ and ≤ were set here for values at or beyond the usual limits of such assays
Where [1] appears, read: source organism: Vaccinia virus WR.
[2] abbreviates: source organism: Vaccinia virus Copenhagen.
Where [3] appears, read: source organism: Lassa virus Josiah.
Where [4] appears, read: source organism: SARS coronavirus Tor2.
[5] abbreviates: source organism: Mammarenavirus lassaense.
[6] abbreviates: source organism: Mammarenavirus machupoense.
Where [7] appears, read: source organism: Mammarenavirus guanaritoense.

Regarding KQLCYCPASK, the equilibrium dissociation constant (Kd) (usually a measure of binding affinity in units of concentration) in the experiment with HLA-A*03:01 (setting [1]) is 27.1 nM; with HLA-A*11:01 (setting [1]), 13.9 nM; in the experiment with HLA-A*31:01 (setting [1]), 31 nM; in the experiment with HLA-A*33:01 (setting [1]), at least 31100 nM; in the experiment with HLA-A*68:01 (setting [1]), 11300 nM.

As for KSTSPTRTWK, the Kd is 11.1 nM with HLA-A*03:01 (setting [2]); 21.7 nM with HLA-A*11:01 (setting [2]); 101 nM in the experiment with HLA-A*31:01 (setting [2]); 6860 nM with HLA-A*33:01 (setting [2]); 472 nM with HLA-A*68:01 (setting [2]).

With NYSKYWYLNH, the Kd with HLA-A*03:01 (setting [3]) was at least 70000 nM; with HLA-A*11:01 (setting [3]) it was at least 21800 nM; with HLA-A*31:01 (setting [3]), 1480 nM; in the experiment with HLA-A*33:01 (setting [3]) it was 863 nM; with HLA-A*68:01 (setting [3]), at least 70100 nM.

In the case of NIKPSKENR, the Kd with HLA-A*03:01 (setting [1]) was 7390 nM; in the experiment with HLA-A*11:01 (setting [1]), at least 30400 nM; with HLA-A*31:01 (setting [1]), 545 nM; with HLA-A*33:01 (setting [1]), 338 nM; with HLA-A*68:01 (setting [1]), 10.5 nM.

As to QMAGVEVRY, the Kd with HLA-A*03:01 (setting [1]) is 49.6 nM; in the experiment with HLA-A*11:01 (setting [1]) it was 2270 nM; with HLA-A*31:01 (setting [1]) it was at least 31200 nM; in the experiment with HLA-A*33:01 (setting [1]), at least 20200 nM; with HLA-A*68:01 (setting [1]), 7430 nM.

With TLLPLTQYNR, the dissociation constant (Kd) worked out at 7220 nM with HLA-A*03:01 (setting [4]); 8140 nM with HLA-A*11:01 (setting [4]); 1340 nM with HLA-A*31:01 (setting [4]); 4590 nM with HLA-A*33:01 (setting [4]); 3410 nM in the experiment with HLA-A*68:01 (setting [4]).

Turning to LSCIRNASK, the Kd in the experiment with HLA-A*03:01 (setting [1]) worked out at 484 nM; with HLA-A*11:01 (setting [1]) it was 500 nM; with HLA-A*31:01 (setting [1]) it was 300 nM; with HLA-A*33:01 (setting [1]), 784 nM; with HLA-A*68:01 (setting [1]), 276 nM.

On to NSTTDAEACY, for which the equilibrium dissociation constant (Kd) in the experiment with HLA-A*03:01 (setting [1]) is at least 70100 nM; with HLA-A*11:01 (setting [1]), 17800 nM; with HLA-A*31:01 (setting [1]), at least 70000 nM; in the experiment with HLA-A*33:01 (setting [1]), at least 70000 nM; in the experiment with HLA-A*68:01 (setting [1]), 7370 nM.

Regarding VIDKAKVMGR, the equilibrium dissociation constant (Kd) in the experiment with HLA-A*03:01 (setting [1]) came out at 805 nM; with HLA-A*11:01 (setting [1]), 488 nM; with HLA-A*31:01 (setting [1]), 130 nM; with HLA-A*33:01 (setting [1]), 2650 nM; in the experiment with HLA-A*68:01 (setting [1]), 334 nM.

Consider KSCICYGSY, for which the dissociation constant Kd was 437 nM with HLA-A*03:01 (setting [1]); 6.88 nM with HLA-A*11:01 (setting [1]); 418 nM with HLA-A*31:01 (setting [1]); 364 nM with HLA-A*33:01 (setting [1]); at least 29700 nM with HLA-A*68:01 (setting [1]).

For KIIETYLGR, the Kd in the experiment with HLA-A*03:01 (setting [1]) is at least 78000 nM; with HLA-A*11:01 (setting [1]), at least 77900 nM; with HLA-A*31:01 (setting [1]) it was at least 77900 nM; with HLA-A*33:01 (setting [1]), at least 77700 nM; with HLA-A*68:01 (setting [1]), at least 77700 nM.

As for EAVYGNIKHK, the Kd with HLA-A*03:01 (setting [1]) was 18700 nM; in the experiment with HLA-A*11:01 (setting [1]) it was 11700 nM; with HLA-A*31:01 (setting [1]) it was 13900 nM; with HLA-A*33:01 (setting [1]), at least 70000 nM; in the experiment with HLA-A*68:01 (setting [1]), 62.3 nM.

As for QCKDLCHMH, the Kd is at least 71900 nM in the experiment with HLA-A*03:01 (setting [5]); at least 77900 nM in the experiment with HLA-A*11:01 (setting [5]); 526 nM in the experiment with HLA-A*31:01 (setting [5]); 12300 nM with HLA-A*33:01 (setting [5]); 1520 nM with HLA-A*68:01 (setting [5]).

Regarding DTIVSRSSR, the dissociation constant (Kd) is at least 78000 nM in the experiment with HLA-A*03:01 (setting [1]); at least 77900 nM with HLA-A*11:01 (setting [1]); 1410 nM with HLA-A*31:01 (setting [1]); 5.71 nM with HLA-A*33:01 (setting [1]); 5.79 nM in the experiment with HLA-A*68:01 (setting [1]).

As to PIGMQFDKVY, the dissociation constant Kd with HLA-A*03:01 (setting [1]) was at least 70100 nM; with HLA-A*11:01 (setting [1]), 1230 nM; with HLA-A*31:01 (setting [1]) it was at least 70000 nM; in the experiment with HLA-A*33:01 (setting [1]), at least 70000 nM; in the experiment with HLA-A*68:01 (setting [1]) it was 13000 nM.

ISQFSYKELY: the dissociation constant (Kd) was 5720 nM with HLA-A*03:01 (setting [1]); 1250 nM with HLA-A*11:01 (setting [1]); 9580 nM with HLA-A*31:01 (setting [1]); at least 46800 nM with HLA-A*33:01 (setting [1]); 7760 nM with HLA-A*68:01 (setting [1]).

With TVHKLTQDEK, the Kd with HLA-A*03:01 (setting [1]) was 12300 nM; with HLA-A*11:01 (setting [1]), 80.5 nM; with HLA-A*31:01 (setting [1]) it was at least 70000 nM; with HLA-A*33:01 (setting [1]) it was at least 70000 nM; with HLA-A*68:01 (setting [1]) it was 220 nM.

Regarding NTKSDIDVIK, the Kd was 8260 nM with HLA-A*03:01 (setting [1]); 68.4 nM with HLA-A*11:01 (setting [1]); 4030 nM with HLA-A*31:01 (setting [1]); 970 nM with HLA-A*33:01 (setting [1]); 0.547 nM with HLA-A*68:01 (setting [1]).

For ISELSRLRY, the dissociation constant (Kd) with HLA-A*03:01 (setting [1]) is 6570 nM; with HLA-A*11:01 (setting [1]), 10800 nM; in the experiment with HLA-A*31:01 (setting [1]) it was 5370 nM; with HLA-A*33:01 (setting [1]), at least 77700 nM; with HLA-A*68:01 (setting [1]) it was at least 22700 nM.

Regarding LNNSFYYMR, the dissociation constant (Kd) is at least 78000 nM in the experiment with HLA-A*03:01 (setting [6]); 5880 nM with HLA-A*11:01 (setting [6]); 4.64 nM with HLA-A*31:01 (setting [6]); at least 21700 nM with HLA-A*33:01 (setting [6]); 15.3 nM with HLA-A*68:01 (setting [6]).

On to LIIYYQLAGY, for which the Kd in the experiment with HLA-A*03:01 (setting [1]) was 137 nM; with HLA-A*11:01 (setting [1]), 5120 nM; in the experiment with HLA-A*31:01 (setting [1]) it was at least 25700 nM; with HLA-A*33:01 (setting [1]), at least 67600 nM; in the experiment with HLA-A*68:01 (setting [1]), 8000 nM.

Take PCPLPHRLDR: the dissociation constant Kd with HLA-A*03:01 (setting [7]) was at least 70000 nM; with HLA-A*11:01 (setting [7]), at least 69700 nM; with HLA-A*31:01 (setting [7]) it was 2940 nM; with HLA-A*33:01 (setting [7]) it was at least 21800 nM; with HLA-A*68:01 (setting [7]) it was at least 31100 nM.

With YIYSEIKQGR, the equilibrium dissociation constant (Kd) was 1650 nM in the experiment with HLA-A*03:01 (setting [1]); 11600 nM in the experiment with HLA-A*11:01 (setting [1]); 16.5 nM in the experiment with HLA-A*31:01 (setting [1]); 853 nM in the experiment with HLA-A*33:01 (setting [1]); 6.39 nM with HLA-A*68:01 (setting [1]).

(Values after the Immune Epitope Database (IEDB).)
